Laboratory results as given in patent US20200277369A1 (Novartis, published 2020).

Biological target: T1, human homodimer IL-17A (human, UniProt Q16552 24-155)
T1 construct: Homodimer as printed; also called interleukin-17A
Assay: not stated (affinity given in running text of Example 1, no method)

T1 sequence (Q16552 24-155 limits assumed): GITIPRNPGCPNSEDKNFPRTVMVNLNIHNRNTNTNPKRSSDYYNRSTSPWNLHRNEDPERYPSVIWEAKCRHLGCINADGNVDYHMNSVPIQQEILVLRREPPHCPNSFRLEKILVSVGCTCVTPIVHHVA

Kd: 6 pM
B1: CJM112 (antibody, V domains shown)
VH: EVQLVESGGDLVQPGGSLRLSCAASGFTFSSYWMSWVRQAPGKGLEWVANIKQDGSEKYYVDSVKGRFTISRDNAKNSLYLQMNSLRAEDTAVYYCARDRGSLYYWGQGTLVTVSS
VL: AIQLTQSPSSLSASVGDRVTITCRPSQGINWELAWYQQKPGKAPKLLIYDASSLEQGVPSRFSGSGSGTDFTLTISSLQPEDFATYYCQQFNSYPLTFGGGTKVEIK
